Reference: patent publication US7176178 (HANSA MEDICAL, dated 2007)

Legend:
[1] = biological target: nucleophosmin/B23 (NPM), papain-released material from Jurkat membrane preparations (Mono-Q pool 85-87) (human) (UniProt P06748); assay: competitive inhibition of the binding of 125I-labelled NPM to protein H-Sepharose by unlabeled fragment AB
[2] = biological target: T1, protein H (COOH-terminally truncated fragment expressed by and purified from E. coli) (Streptococcus pyogenes, UniProt P50470 42-346); assay: 35S-labelled in vitro translated peptide applied to protein H-Sepharose, KSCN eluate on SDS-PAGE, autoradiography
T1 construct: also called recombinant protein H; soluble protein H
T1 sequence: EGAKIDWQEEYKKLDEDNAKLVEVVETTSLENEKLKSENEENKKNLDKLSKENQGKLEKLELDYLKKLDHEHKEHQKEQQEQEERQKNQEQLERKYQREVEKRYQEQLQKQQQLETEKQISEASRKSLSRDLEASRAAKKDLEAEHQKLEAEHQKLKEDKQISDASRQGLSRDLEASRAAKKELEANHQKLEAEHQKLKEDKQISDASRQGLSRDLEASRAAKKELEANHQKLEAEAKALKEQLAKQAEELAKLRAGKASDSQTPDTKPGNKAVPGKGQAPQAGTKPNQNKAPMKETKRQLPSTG

Sequence of nucleophosmin/B23 (NPM), papain-released material from Jurkat membrane preparations (Mono-Q pool 85-87) (human) (P06748 1-149 limits assumed): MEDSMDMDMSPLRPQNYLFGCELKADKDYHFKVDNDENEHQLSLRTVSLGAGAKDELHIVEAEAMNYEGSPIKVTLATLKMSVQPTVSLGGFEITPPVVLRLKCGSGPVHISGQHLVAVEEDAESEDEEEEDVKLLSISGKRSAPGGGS

fragment AB of protein H (peptide)
IC50 (read off the curve) [1]: 100 pmol

B1: COOH-terminal fragment of NPM, in vitro translated (peptide)
chain: KVPQKKVKLAADEDDDDDDEEDDDEDDDDDDFDDEEAEEKAPVKKSIRDTPAKNAQKSNQNGKDSKPSSTPRSKGQESFKKQEKTPKTPKGPSSVEDIKAKMQASIEKGGSLPKVEAKFINYVKNCFRMTDQEAIQDLWQWRKSL
notes: domain: COOH-terminal half; also called COOH-terminal peptide; COOH-terminal half of NPM
binding result [2]: no binding
